Earlier results, collected in publication PMC7956452.

Molecular target: RNA polymerase II CTD phosphorylated heptapeptide (Homo sapiens)

Kd: 154 µM
Substance: PQBP-1 (from UniProt O60828)
